Measured values from the Immune Epitope Database (IEDB).

How the values were obtained:
Assay in all cases: IEDB peptide-MHC binding, purified MHC/direct/fluorescence; filed as Kd, often an IC50 or EC50 that approximates it; ≥ and ≤ were set here for values at or beyond the usual limits of such assays
HLA-B*39:01 = settings: source organism: Yellow fever virus
HLA-B*51:01 = target: HLA-B*51:01
HLA-B*40:01 = settings: source organism: Yellow fever virus
HLA-A*01:01 = settings: source organism: dengue virus type 2
HLA-A*31:01 = target: HLA-A*31:01
HLA-A*03:01 = settings: source organism: Yellow fever virus
HLA-B*07:02 = settings: source organism: Yellow fever virus
HLA-B*15:01 = settings: source organism: dengue virus type 4
[1] = source organism: Yellow fever virus

## CRTAFKPVL
HLA-B*39:01
  Kd: 2060 nM

## ERWFVRNPF
HLA-B*39:01
  Kd: ≥ 20000 nM

## FHERGYVKL
HLA-B*39:01
  Kd: 35 nM

## FHKRDMRLL
HLA-B*39:01
  Kd: ≥ 20000 nM

## FTMRLLSPV
HLA-B*51:01; source organism: dengue virus type 1
  Kd: ≥ 20000 nM

## GEAMDTISV
HLA-B*39:01
  Kd: ≥ 20000 nM
HLA-B*40:01
  Kd: ≤ 1 nM

## IQYVIRAQL
HLA-B*39:01
  Kd: 682 nM

## KTWAYHGSY
HLA-A*01:01
  Kd: ≥ 20000 nM
HLA-A*31:01; source organism: dengue virus type 2
  Kd: ≥ 20000 nM

## LTLKGTSYK
HLA-A*03:01
  Kd: 104 nM
HLA-A*31:01; [1]
  Kd: 518 nM

## MPRSIGGPV
HLA-B*07:02
  Kd: 5 nM
HLA-B*51:01; [1]
  Kd: 858 nM

## MVIFFMSPK
HLA-A*03:01
  Kd: 610 nM
HLA-A*31:01; [1]
  Kd: 1400 nM

## PHAATIRVL
HLA-B*39:01
  Kd: 960 nM

## RADEINAIL
HLA-B*39:01
  Kd: 156 nM

## RMGERQLQK
HLA-A*03:01
  Kd: 340 nM
HLA-A*31:01; [1]
  Kd: 187 nM

## RTWAYHGSY
HLA-A*31:01; source organism: dengue virus type 4
  Kd: 37 nM
HLA-B*15:01
  Kd: 12 nM

## SSARYDVAL
HLA-B*39:01
  Kd: 377 nM

## TKDTNDNNL
HLA-B*39:01
  Kd: 136 nM

## VRGGMVAPL
HLA-B*39:01
  Kd: 5370 nM
